# Data reported in IntAct's records for PubMed 20153263.
# B1: Protein AF-9 (Homo sapiens), P42568 (parent)
# chain: MASSCAVQVKLELGHRAQVRKKPTVEGFTHDWMVFVRGPEHSNIQHFVEKVVFHLHESFPRPKRVCKDPPYKVEESGYAGFILPIEVYFKNKEEPRKVRFDYDLFLHLEGHPPVNHLRCEKLTFNNPTEDFRRKLLKAGGDPNRSIHTSSSSSSSSSSSSSSSSSSSSSSSSSSSSSSSSSSSSSSSSSSTSFSKPHKLMKEHKEKPSKDSREHKSAFKEPSRDHNKSSKESSKKPKENKPLKEEKIVPKMAFKEPKPMSKEPKPDSNLLTITSGQDKKAPSKRPPISDSEELSAKKRKKSSSEALFKSFSSAPPLILTCSADKKQIKDKSHVKMGKVKIESETSEKKKSTLPPFDDIVDPNDSDVEENISSKSDSEQPSPASSSSSSSSSFTPSQTRQQGPLRSIMKDLHSDDNEEESDEVEDNDNDSEMERPVNRGGSRSRRVSLSDGSDSESSSASSPLHHEPPPPLLKTNNNQILEVKSPIKQSKSDKQIKNGECDKAYLDELVELHRRLMTLRERHILQQIVNLIEETGHFHITNTTFDFDLCSLDKTTVRKLQSYLETSGTS
# B2: Protein AF-9 (Homo sapiens), P42568 (parent)
# chain: B1 chain
# partner: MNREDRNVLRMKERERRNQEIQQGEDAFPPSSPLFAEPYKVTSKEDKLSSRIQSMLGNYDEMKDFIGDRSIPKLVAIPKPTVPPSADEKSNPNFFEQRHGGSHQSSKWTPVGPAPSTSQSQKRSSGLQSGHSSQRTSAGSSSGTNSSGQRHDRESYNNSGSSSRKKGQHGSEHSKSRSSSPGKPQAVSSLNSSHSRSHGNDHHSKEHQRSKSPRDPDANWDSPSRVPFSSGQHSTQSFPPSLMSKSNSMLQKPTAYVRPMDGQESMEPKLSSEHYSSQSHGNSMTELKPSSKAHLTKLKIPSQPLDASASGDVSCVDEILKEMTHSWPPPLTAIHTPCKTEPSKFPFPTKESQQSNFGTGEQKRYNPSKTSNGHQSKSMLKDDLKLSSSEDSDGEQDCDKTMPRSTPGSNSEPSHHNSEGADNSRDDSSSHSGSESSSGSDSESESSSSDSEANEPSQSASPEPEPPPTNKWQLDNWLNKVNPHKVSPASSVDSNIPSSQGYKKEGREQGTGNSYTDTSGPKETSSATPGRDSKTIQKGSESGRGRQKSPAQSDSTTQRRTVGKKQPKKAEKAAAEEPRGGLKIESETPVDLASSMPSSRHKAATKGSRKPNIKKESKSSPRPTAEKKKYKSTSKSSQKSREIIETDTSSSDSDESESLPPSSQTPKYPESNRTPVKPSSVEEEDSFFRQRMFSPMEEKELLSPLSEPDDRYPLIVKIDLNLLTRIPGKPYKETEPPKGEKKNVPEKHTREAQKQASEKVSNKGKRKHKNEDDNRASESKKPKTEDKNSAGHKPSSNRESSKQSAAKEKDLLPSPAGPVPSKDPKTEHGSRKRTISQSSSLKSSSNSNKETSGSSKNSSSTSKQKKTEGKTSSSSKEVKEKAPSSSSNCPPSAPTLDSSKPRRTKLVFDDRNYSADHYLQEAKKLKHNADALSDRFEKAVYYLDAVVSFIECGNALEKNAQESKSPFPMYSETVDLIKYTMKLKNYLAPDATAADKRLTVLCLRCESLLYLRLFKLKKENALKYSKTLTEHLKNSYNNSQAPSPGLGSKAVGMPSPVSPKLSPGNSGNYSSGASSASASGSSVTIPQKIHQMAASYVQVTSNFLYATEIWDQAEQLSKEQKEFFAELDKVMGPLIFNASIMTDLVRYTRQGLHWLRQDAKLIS
# B3: Protein ENL (Homo sapiens), Q03111 (parent)
# chain: MDNQCTVQVRLELGHRAQLRKKPTTEGFTHDWMVFVRGPEQCDIQHFVEKVVFWLHDSFPKPRRVCKEPPYKVEESGYAGFIMPIEVHFKNKEEPRKVCFTYDLFLNLEGNPPVNHLRCEKLTFNNPTTEFRYKLLRAGGVMVMPEGADTVSRPSPDYPMLPTIPLSAFSDPKKTKPSHGSKDANKESSKTSKPHKVTKEHRERPRKDSESKSSSKELEREQAKSSKDTSRKLGEGRLPKEEKAPPPKAAFKEPKMALKETKLESTSPKGGPPPPPPPPPRASSKRPATADSPKPSAKKQKKSSSKGSRSAPGTSPRTSSSSSFSDKKPAKDKSSTRGEKVKAESEPREAKKALEVEESNSEDEASFKSESAQSSPSNSSSSSDSSSDSDFEPSQNHSQGPLRSMVEDLQSEESDEDDSSSGEEAAGKTNPGRDSRLSFSDSESDNSADSSLPSREPPPPQKPPPPNSKVSGRRSPESCSKPEKILKKGTYDKAYTDELVELHRRLMALRERNVLQQIVNLIEETGHFNVTNTTFDFDLFSLDETTVRKLQSCLEAVAT
# partner: B2 partner
# B4: Protein ENL (Homo sapiens), Q03111 (parent)
# chain: B3 chain
# Variants of: B1
# Conditions: with dot1l_human DOT1L
row,Variant,effect of a mutation on the interaction
1,MASSCAVQVKLELGHRAQVRKKPTVEGFTHDWMVFVRGPEHSNIQHFVEKVVFHLHESFPRPKRVCKDPPYKVEESGYAGFILPIEVYFKNKEEPRKVRFDYDLFLHLEGHPPVNHLRCEKLTFNNPTEDFRRKLLKAGGDPNRSIHTSSSSSSSSSSSSSSSSSSSSSSSSSSSSSSSSSSSSSSSSSSTSFSKPHKLMKEHKEKPSKDSREHKSAFKEPSRDHNKSSKESSKKPKENKPLKEEKIVPKMAFKEPKPMSKEPKPDSNLLTITSGQDKKAPSKRPPISDSEELSAKKRKKSSSEALFKSFSSAPPLILTCSADKKQIKDKSHVKMGKVKIESETSEKKKSTLPPFDDIVDPNDSDVEENISSKSDSEQPSPASSSSSSSSSFTPSQTRQQGPLRSIMKDLHSDDNEEESDEVEDNDNDSEMERPVNRGGSRSRRVSLSDGSDSESSSASSPLHHEPPPPLLKTNNNQILEVKSPIKQSKSDKQIKNGECDKAYLDELVELHRRLMTLRERHILQQIVNLIEETGHFHITNTTFDFDLCSLDKTTVRKEQSYLETSGTS [L558E],decreasing interaction

# Variants of: B2
# Conditions: with aff4_human AFF4, Q9UHB7
row,Variant,effect of a mutation on the interaction
1,MASSCAVQVKLELGHRAQVRKKPTVEGFTHDWMVFVRGPEHSNIQHFVEKVVFHLHESFPRPKRVCKDPPYKVEESGYAGFILPIEVYFKNKEEPRKVRFDYDLFLHLEGHPPVNHLRCEKLTFNNPTEDFRRKLLKAGGDPNRSIHTSSSSSSSSSSSSSSSSSSSSSSSSSSSSSSSSSSSSSSSSSSTSFSKPHKLMKEHKEKPSKDSREHKSAFKEPSRDHNKSSKESSKKPKENKPLKEEKIVPKMAFKEPKPMSKEPKPDSNLLTITSGQDKKAPSKRPPISDSEELSAKKRKKSSSEALFKSFSSAPPLILTCSADKKQIKDKSHVKMGKVKIESETSEKKKSTLPPFDDIVDPNDSDVEENISSKSDSEQPSPASSSSSSSSSFTPSQTRQQGPLRSIMKDLHSDDNEEESDEVEDNDNDSEMERPVNRGGSRSRRVSLSDGSDSESSSASSPLHHEPPPPLLKTNNNQILEVKSPIKQSKSDKQIKNGECDKAYLDELVELHRRLMTLRERHILQQIVNLIEETGHFHITNTTFDFDLCSLDKTTVRKEQSYLETSGTS [L558E],decreasing interaction

# Variants of: B3
# Conditions: with aff4_human AFF4, Q9UHB7
row,Variant,effect of a mutation on the interaction
1,MDNQCTVQVRLELGHRAQLRKKPTTEGFTHDWMVFVRGPEQCDIQHFVEKVVFWLHDSFPKPRRVCKEPPYKVEESGYAGFIMPIEVHFKNKEEPRKVCFTYDLFLNLEGNPPVNHLRCEKLTFNNPTTEFRYKLLRAGGVMVMPEGADTVSRPSPDYPMLPTIPLSAFSDPKKTKPSHGSKDANKESSKTSKPHKVTKEHRERPRKDSESKSSSKELEREQAKSSKDTSRKLGEGRLPKEEKAPPPKAAFKEPKMALKETKLESTSPKGGPPPPPPPPPRASSKRPATADSPKPSAKKQKKSSSKGSRSAPGTSPRTSSSSSFSDKKPAKDKSSTRGEKVKAESEPREAKKALEVEESNSEDEASFKSESAQSSPSNSSSSSDSSSDSDFEPSQNHSQGPLRSMVEDLQSEESDEDDSSSGEEAAGKTNPGRDSRLSFSDSESDNSADSSLPSREPPPPQKPPPPNSKVSGRRSPESCSKPEKILKKGTYDKAYTDELVELHRRLMALRERNVLQQIVNLIEETGHFNVTNTTFDFDLFSLDETTVRKEQSCLEAVAT [L550E],disrupting interaction

# Variants of: B4
# Conditions: with dot1l_human DOT1L
row,Variant,effect of a mutation on the interaction
1,MDNQCTVQVRLELGHRAQLRKKPTTEGFTHDWMVFVRGPEQCDIQHFVEKVVFWLHDSFPKPRRVCKEPPYKVEESGYAGFIMPIEVHFKNKEEPRKVCFTYDLFLNLEGNPPVNHLRCEKLTFNNPTTEFRYKLLRAGGVMVMPEGADTVSRPSPDYPMLPTIPLSAFSDPKKTKPSHGSKDANKESSKTSKPHKVTKEHRERPRKDSESKSSSKELEREQAKSSKDTSRKLGEGRLPKEEKAPPPKAAFKEPKMALKETKLESTSPKGGPPPPPPPPPRASSKRPATADSPKPSAKKQKKSSSKGSRSAPGTSPRTSSSSSFSDKKPAKDKSSTRGEKVKAESEPREAKKALEVEESNSEDEASFKSESAQSSPSNSSSSSDSSSDSDFEPSQNHSQGPLRSMVEDLQSEESDEDDSSSGEEAAGKTNPGRDSRLSFSDSESDNSADSSLPSREPPPPQKPPPPNSKVSGRRSPESCSKPEKILKKGTYDKAYTDELVELHRRLMALRERNVLQQIVNLIEETGHFNVTNTTFDFDLFSLDETTVRKEQSCLEAVAT [L550E],decreasing interaction
